Measured values from publication PMC314469, “Protein Interaction Networks by Proteome Peptide Scanning” (PLoS Biology, 2004).

Molecular target: T1, Abp1 SH3 (ABP1_YEAST), P15891
T1 chain: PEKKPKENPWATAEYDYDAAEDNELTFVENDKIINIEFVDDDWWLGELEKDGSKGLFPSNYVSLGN
Experiment: SPOT array

Binder: LWSWVLGPLLSRP [YOL110W 177-189]
- normalised SPOT signal, Boehringer light units (BLU); mean over the file's lines of this peptide: 120

Binder: LWTNDDYLQQPARP [YER136W 199-212]
- normalised SPOT signal, Boehringer light units (BLU); mean over the file's lines of this peptide: 30

Binder: LYALVLKPVGKKP [YOR109W 19-31]
- normalised SPOT signal, Boehringer light units (BLU); mean over the file's lines of this peptide: 109

Binder: LYEQFRNPLRSRP [YDR389W 229-241]
- normalised SPOT signal, Boehringer light units (BLU); mean over the file's lines of this peptide: 950

Binder: LYMDKFIKLIPMRP [YDR479C 283-296]
- normalised SPOT signal, Boehringer light units (BLU); mean over the file's lines of this peptide: 4270

Binder: LYPQGYDPTDPSRP [YDR093W 1465-1478]
- normalised SPOT signal, Boehringer light units (BLU); mean over the file's lines of this peptide: 57.7

Binder: MAKEDTGVTAPKKP [YOR086C 1-14]
- normalised SPOT signal, Boehringer light units (BLU); mean over the file's lines of this peptide: 119

Binder: MAKSQNKPKREKP [YDR381W 195-207]
- normalised SPOT signal, Boehringer light units (BLU); mean over the file's lines of this peptide: 2220

Binder: MARGSHFPILNRP [YNL013C 89-101]
- normalised SPOT signal, Boehringer light units (BLU); mean over the file's lines of this peptide: 2480

Binder: MDDFVTPPDEVKP [YBR023C 712-724]
- normalised SPOT signal, Boehringer light units (BLU); mean over the file's lines of this peptide: 40.3

Binder: MDTMANILYYPQKP [YOR151C 789-802]
- normalised SPOT signal, Boehringer light units (BLU); mean over the file's lines of this peptide: 117

Binder: MEEPFIWPEEPRP [YDR405W 164-176]
- normalised SPOT signal, Boehringer light units (BLU); mean over the file's lines of this peptide: 184

Binder: MEVGGVRNYVPQKP [YKL095W 108-121]
- normalised SPOT signal, Boehringer light units (BLU); mean over the file's lines of this peptide: 68

Binder: MFARLANPAHFKP [YOR226C 1-13]
- normalised SPOT signal, Boehringer light units (BLU); mean over the file's lines of this peptide: 2660

Binder: MGARNVQPTMFKP [YDL164C 244-256]
- normalised SPOT signal, Boehringer light units (BLU); mean over the file's lines of this peptide: 6660

Binder: MIEPAYRNGGPVKP [YOR093C 939-952]
- normalised SPOT signal, Boehringer light units (BLU); mean over the file's lines of this peptide: 63.4

Binder: MKHFFRLPTAFRP [YHR120W 1-13]
- normalised SPOT signal, Boehringer light units (BLU); mean over the file's lines of this peptide: 538

Binder: MKLEGTYEKIPEKP [YAL024C 1062-1075]
- normalised SPOT signal, Boehringer light units (BLU); mean over the file's lines of this peptide: 201

Binder: MKTTDTYPSLPKP [YMR205C 179-191]
- normalised SPOT signal, Boehringer light units (BLU); mean over the file's lines of this peptide: 97.9

Binder: MNDDRETPPKRKP [YAL026C 1-13]
- normalised SPOT signal, Boehringer light units (BLU); mean over the file's lines of this peptide: 6180

Binder: MNIRPSISMRPIKP [YNL105W 40-53]
- normalised SPOT signal, Boehringer light units (BLU); mean over the file's lines of this peptide: 9140

Binder: MNPKSSTPKIPRP [YPR065W 1-13]
- normalised SPOT signal, Boehringer light units (BLU); mean over the file's lines of this peptide: 1070

Binder: MPQNQGFPPQFKP [YCL037C 234-246]
- normalised SPOT signal, Boehringer light units (BLU); mean over the file's lines of this peptide: 308

Binder: MQDYRPSPQSARP [YLL043W 81-93]
- normalised SPOT signal, Boehringer light units (BLU); mean over the file's lines of this peptide: 310

Binder: MQLGSLVPSSLKP [YLR413W 258-270]
- normalised SPOT signal, Boehringer light units (BLU); mean over the file's lines of this peptide: 3590

Binder: MRSHMEQPQSIKP [YOR329C 457-469]
- normalised SPOT signal, Boehringer light units (BLU); mean over the file's lines of this peptide: 1740

Binder: MRSNPQQPPQDKP [YPL204W 475-487]
- normalised SPOT signal, Boehringer light units (BLU); mean over the file's lines of this peptide: 264

Binder: MSELHALLTFPERP [YDR465C 1-14]
- normalised SPOT signal, Boehringer light units (BLU); mean over the file's lines of this peptide: 18.5

Binder: MSISSKIRPTPRKP [YER118C 1-14]
- normalised SPOT signal, Boehringer light units (BLU); mean over the file's lines of this peptide: 2450

Binder: MSKLLKHGWKPLRP [YJR126C 471-484]
- normalised SPOT signal, Boehringer light units (BLU); mean over the file's lines of this peptide: 267

Binder: MTAAKPNPYAAKP [YDL182W 1-13]
- normalised SPOT signal, Boehringer light units (BLU); mean over the file's lines of this peptide: 2430

Binder: MTPGASANALPPKP [YDL195W 796-809]
- normalised SPOT signal, Boehringer light units (BLU); mean over the file's lines of this peptide: 91.9

Binder: MTSNNLPPGKRKP [YBR222C 343-355]
- normalised SPOT signal, Boehringer light units (BLU); mean over the file's lines of this peptide: 4880

Binder: NATGKHFPKYFRP [YLR307W 189-201]
- normalised SPOT signal, Boehringer light units (BLU); mean over the file's lines of this peptide: 146

Binder: NATGNHTPKWFRP [YLR308W 199-211]
- normalised SPOT signal, Boehringer light units (BLU); mean over the file's lines of this peptide: 100

Binder: NSVDRHAFANPDKP [YLR153C 95-108]
- normalised SPOT signal, Boehringer light units (BLU); mean over the file's lines of this peptide: 103

Binder: NDEEIKKPTDGKP [YMR012W 785-797]
- normalised SPOT signal, Boehringer light units (BLU); mean over the file's lines of this peptide: 33.6

Binder: NDRFSHTPQQQRP [YNL263C 17-29]
- normalised SPOT signal, Boehringer light units (BLU); mean over the file's lines of this peptide: 164

Binder: NDRNNADPEKKKP [YDR457W 2434-2446]
- normalised SPOT signal, Boehringer light units (BLU); mean over the file's lines of this peptide: 206

Binder: NEAAKPSFSFPGKP [YOR098C 607-620]
- normalised SPOT signal, Boehringer light units (BLU); mean over the file's lines of this peptide: 38

Binder: NEDELDSPVQKKP [YKR086W 102-114]
- normalised SPOT signal, Boehringer light units (BLU); mean over the file's lines of this peptide: 54.4

Binder: NESAPLQPFPERP [YFL041W 455-467]
- normalised SPOT signal, Boehringer light units (BLU); mean over the file's lines of this peptide: 26.2
